Experimental data from patent publication US20220268706A1.

Legend:
[1] = biological target: antibody-12/36-RLuc8 conjugate (Renilla reniformis); experiment: BRET competition, Fluorostar; 50 nM mAb-12/36-RLuc8, 200 nM FLAG-GFP^2 as competitor
[2] = biological target: antibody-CLICK-RLuc8 (anti-FLAG mAb-dPEG4-DBCO:RLuc8:dPEG8azide conjugate) (Renilla reniformis); experiment: BRET competition; 50 nM conjugate, 200 nM FLAG-GFP^2 as competitor, 1 µM FLAG peptide
[3] = biological target: antibody-CLICK-RLuc8 (anti-FLAG mAb-dPEG4-DBCO:RLuc8:dPEG8azide conjugate) (Renilla reniformis); experiment: BRET competition; 5 nM antibody-CLICK-RLuc8, 150 nM FLAG-GFP^2 as competitor, 100 nM FLAG peptide; same for every order of addition

Chain of antibody-CLICK-RLuc8 (anti-FLAG mAb-dPEG4-DBCO:RLuc8:dPEG8azide conjugate) (Renilla reniformis) (P27652 other isoform, or with tags, fused parts or gaps): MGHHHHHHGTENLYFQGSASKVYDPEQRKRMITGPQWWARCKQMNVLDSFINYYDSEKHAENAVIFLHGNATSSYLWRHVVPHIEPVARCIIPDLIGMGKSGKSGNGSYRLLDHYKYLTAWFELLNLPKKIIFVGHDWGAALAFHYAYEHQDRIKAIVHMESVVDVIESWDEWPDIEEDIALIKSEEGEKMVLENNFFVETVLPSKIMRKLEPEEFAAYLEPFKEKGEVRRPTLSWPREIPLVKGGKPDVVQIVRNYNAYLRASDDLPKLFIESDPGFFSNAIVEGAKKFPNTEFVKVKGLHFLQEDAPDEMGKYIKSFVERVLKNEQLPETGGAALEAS
Chain of antibody-12/36-RLuc8 conjugate (Renilla reniformis) (P27652 other isoform, or with tags, fused parts or gaps): as above

**Q.** With FLAG peptide (DYKDDDDK) as the substance, how does the EC50 [1] read?
**A.** 274 nM

**Q.** And the response to 1 µM FLAG peptide [2]?
**A.** 45%

**Q.** And the decrease in the BRET ratio [3]?
**A.** 22%
